Measurements published in publication PMC8280646.
Like-named read-outs stand apart in the source and are kept apart here.

Biological target: His-tagged hACE2 protein (human) (UniProt Q9BYF1)
Assay: SPR

Chain of His-tagged hACE2 protein (human) (Q9BYF1 18-740): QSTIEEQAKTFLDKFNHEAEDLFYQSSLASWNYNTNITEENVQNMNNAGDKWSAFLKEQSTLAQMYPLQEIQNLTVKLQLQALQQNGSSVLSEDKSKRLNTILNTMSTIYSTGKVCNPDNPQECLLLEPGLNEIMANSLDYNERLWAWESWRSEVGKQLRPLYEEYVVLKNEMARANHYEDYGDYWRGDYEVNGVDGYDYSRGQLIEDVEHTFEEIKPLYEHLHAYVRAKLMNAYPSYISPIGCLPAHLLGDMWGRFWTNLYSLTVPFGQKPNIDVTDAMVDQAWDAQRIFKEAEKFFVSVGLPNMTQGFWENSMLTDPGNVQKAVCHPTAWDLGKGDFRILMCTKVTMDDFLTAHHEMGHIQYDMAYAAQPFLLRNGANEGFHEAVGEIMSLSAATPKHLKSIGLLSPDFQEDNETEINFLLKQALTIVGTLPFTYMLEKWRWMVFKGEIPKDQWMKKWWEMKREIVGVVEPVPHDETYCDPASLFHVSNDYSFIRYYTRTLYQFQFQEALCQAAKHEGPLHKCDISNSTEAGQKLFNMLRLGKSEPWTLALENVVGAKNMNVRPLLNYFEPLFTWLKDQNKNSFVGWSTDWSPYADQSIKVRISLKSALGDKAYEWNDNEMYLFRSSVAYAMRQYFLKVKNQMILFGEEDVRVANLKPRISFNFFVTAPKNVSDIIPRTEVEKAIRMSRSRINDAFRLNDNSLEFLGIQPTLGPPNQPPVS

Question: Which Kd does the source give for Human IFNα-RBD-Fc here?
Answer: The Kd was 12.3 nM.

Question: RBD was tested. Which Kd did it give?
Answer: The Kd was 7.98 nM.

Question: Which Kd does the source give for RBD-Fc here?
Answer: The Kd was 11.5 nM.

Question: How did the Kd (Fc fusion) turn out when “mouse IFNα-Pan-RBD-Fc fusion protein (I-P-R-F) (from UniProt P0DTC2 319-541)” was run?
Answer: The Kd was 11 nM.
